In the supplement of paper PMC7877785:
± gives the uncertainty stated by the source.

Assay: self-splicing fitness, log relative to wild type (ln ratio); higher = more splicing; Tetrahymena group I intron in knt gene, E. coli kanamycin selection, DiMSum; sequences stand for … in CUCUCU…GGAGGGAAAAGUUAUCAGGCAUGCACCUGGUAGCUAGUCUUUAAACCAAUAGAUUGCAUCGGUUUAAAAGGCAAGACCGUCAAAUUGCGGGAAAGGGGUCAACAGCCGUUCAGUACCAAGUCUCAGGGGAAACUUUGAGAUGGCCUUGCAAAGGGUAUGGUAAUAAGCUGACGGACAUGGUCCUAACCACGCAGCCAAGUCCUAAGUCAACAGAUCUUCUGUUGAUAUGGAUGCAGUUCACAGACUAAAUGUCGGUCGGGGAAGAUGUAUUCUUCUCAUAAGAUAUAGUCGGACCUCUCCUUAAUGGGAGCUAGCGGAUGAAGUGAUGCAACACUGGAGCCGCUGGGAACUAAUUUGUAUGCGAAAGUAUAUUGAUUAGUUUUGGAGUACUCGUGGUCG
In short: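 Six replicate transformations of E. coli BL21(DE3) with a pET-22b(+) library were grown overnight at 37°C or 30°C. The library randomised all eight P1ex-region intron nucleotides, the intron lying in the knt kanamycin-resistance gene, and plates were LB agar with or without 25 μg/mL kanamycin plus 100 μg/mL carbenicillin, 50 μM IPTG and 0.2% rhamnose. Pooled colonies were amplicon-sequenced on an Illumina HiSeq 2500, and fitness is the DiMSum error-weighted combination of wild-type-normalised replicate fold changes, kanamycin versus none.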

| Sequence | self-splicing fitness (ln) (30 °C) | self-splicing fitness (ln) (37 °C) |
| --- | --- | --- |
| UUAAAGCAAUAUUACGAUUG | -2.03 ± 0.11 | -0.734 ± 0.11 |
| UUAAAGCAAUAUUACGCACU | -0.0158 ± 0.068 | 0.681 ± 0.095 |
| UUAAAGCAAUAUUACGCCUC | -2.29 ± 0.19 | -1.43 ± 0.24 |
| UUAAAGCAAUAUUACGGAAA | -0.926 ± 0.092 | -1.29 ± 0.12 |
| UUAAAGCAAUAUUACGGACC | -2.27 ± 0.18 | 0.778 ± 0.16 |
| UUAAAGCAAUAUUACGGAGU | -3.35 ± 0.21 | -1.68 ± 0.19 |
| UUAAAGCAAUAUUACGGCGA | 0.464 ± 0.17 | 0.659 ± 0.21 |
| UUAAAGCAAUAUUACGGCUG | 0.262 ± 0.083 | 0.525 ± 0.12 |
| UUAAAGCAAUAUUACGGGGG | -1.83 ± 0.13 | -2.16 ± 0.2 |
| UUAAAGCAAUAUUACGUAUA | -1.26 ± 0.12 | -0.271 ± 0.14 |
| UUAAAGCAAUAUUACGUCAG | -0.815 ± 0.065 | 0.0256 ± 0.093 |
| UUAAAGCAAUAUUACGUCCC | -1.51 ± 0.11 | -0.906 ± 0.14 |
| UUAAAGCAAUAUUACGUGUC | -1.09 ± 0.14 | -1.42 ± 0.16 |
| UUAAAGCAAUAUUACGUUAC | -3.66 ± 0.19 | -0.9 ± 0.2 |
| UUACAGCAAUAUUACGAACU | -2.26 ± 0.15 | -0.279 ± 0.13 |
| UUACAGCAAUAUUACGAAUC | -3.27 ± 0.27 | -2.13 ± 0.3 |
| UUACAGCAAUAUUACGACGA | -0.196 ± 0.077 | 0.136 ± 0.12 |
| UUACAGCAAUAUUACGAGCA | -1.65 ± 0.14 | -0.698 ± 0.11 |
| UUACAGCAAUAUUACGAGGA | -2.24 ± 0.19 | -0.838 ± 0.15 |
| UUACAGCAAUAUUACGCACU | -0.534 ± 0.12 | -0.572 ± 0.14 |
| UUACAGCAAUAUUACGCAUU | -2.73 ± 0.17 | -1.52 ± 0.14 |
| UUACAGCAAUAUUACGCCUA | 0.181 ± 0.11 | 0.542 ± 0.12 |
| UUACAGCAAUAUUACGCUUG | -1.23 ± 0.12 | -0.126 ± 0.13 |
| UUACAGCAAUAUUACGGAAA | -1.42 ± 0.14 | -0.561 ± 0.14 |
| UUACAGCAAUAUUACGGACC | -3.25 ± 0.4 | -1.41 ± 0.32 |
| UUACAGCAAUAUUACGGCAU | -2.01 ± 0.074 | -0.552 ± 0.087 |

| Sequence | self-splicing fitness (ln) (30 °C) | self-splicing fitness (ln) (37 °C) |
| --- | --- | --- |
| UUACAGCAAUAUUACGGCUU | -1.13 ± 0.082 | -1.35 ± 0.1 |
| UUACAGCAAUAUUACGGGGA | -0.473 ± 0.076 | -0.871 ± 0.089 |
| UUACAGCAAUAUUACGGGGC | -3.36 ± 0.48 | -1.17 ± 0.45 |
| UUACAGCAAUAUUACGGGUC | -3.67 ± 0.19 | -2.51 ± 0.15 |
| UUACAGCAAUAUUACGGUUC | -1.97 ± 0.1 | -1.32 ± 0.11 |
| UUACAGCAAUAUUACGGUUU | -0.925 ± 0.046 | 0.136 ± 0.066 |
| UUACAGCAAUAUUACGUGUU | -3.43 ± 0.14 | -2.13 ± 0.13 |
| UUACAGCAAUAUUACGUUUA | -1.3 ± 0.11 | -0.512 ± 0.12 |
| UUAGAGCAAUAUUACGAGGA | -2.99 ± 0.34 | -0.578 ± 0.32 |
| UUAGAGCAAUAUUACGAUAA | -0.0105 ± 0.13 | 0.418 ± 0.18 |
| UUAGAGCAAUAUUACGAUAU | -1.72 ± 0.18 | -1.54 ± 0.23 |
| UUAGAGCAAUAUUACGCCUA | -0.268 ± 0.13 | -0.0554 ± 0.19 |
| UUAGAGCAAUAUUACGCGGC |  | -0.994 ± 0.26 |
| UUAGAGCAAUAUUACGGAUG | -3.13 ± 0.19 | -0.15 ± 0.15 |
| UUAGAGCAAUAUUACGGCAU | -2.51 ± 0.28 | -1.16 ± 0.23 |
| UUAGAGCAAUAUUACGGGAA | -2.25 ± 0.16 | -0.296 ± 0.16 |
| UUAGAGCAAUAUUACGGGGC | -3.24 ± 0.44 |  |
| UUAGAGCAAUAUUACGGUCA | -1.7 ± 0.15 | -1.34 ± 0.14 |
| UUAGAGCAAUAUUACGUAAA | -2.69 ± 0.17 | 0.396 ± 0.13 |
| UUAGAGCAAUAUUACGUACA | -1.7 ± 0.26 | -1.51 ± 0.33 |
| UUAGAGCAAUAUUACGUACG | -0.844 ± 0.11 | -1.06 ± 0.17 |
| UUAGAGCAAUAUUACGUGUA | -3.04 ± 0.18 | -1.83 ± 0.17 |
| UUAGAGCAAUAUUACGUUAA | -1.9 ± 0.13 | -0.197 ± 0.15 |
| UUAUAGCAAUAUUACGAAGG | -3.25 ± 0.39 | -1.67 ± 0.33 |
| UUAUAGCAAUAUUACGAUGA | -0.778 ± 0.12 | 0.516 ± 0.14 |
| UUAUAGCAAUAUUACGCAAA | -2.85 ± 0.22 | -1.51 ± 0.16 |

| Sequence | self-splicing fitness (ln) (30 °C) | self-splicing fitness (ln) (37 °C) |
| --- | --- | --- |
| UUAUAGCAAUAUUACGCAGA | -2.06 ± 0.14 | -1.25 ± 0.099 |
| UUAUAGCAAUAUUACGCAGU |  | -1.61 ± 0.33 |
| UUAUAGCAAUAUUACGCCUC | -2.77 ± 0.39 | -1.59 ± 0.3 |
| UUAUAGCAAUAUUACGGACG | -1.25 ± 0.38 | -0.128 ± 0.34 |
| UUAUAGCAAUAUUACGGACU | -2.04 ± 0.35 | -0.965 ± 0.23 |
| UUAUAGCAAUAUUACGGGGU | -2.93 ± 0.28 | -2.15 ± 0.31 |
| UUAUAGCAAUAUUACGUCGA | -0.277 ± 0.13 | -0.308 ± 0.15 |
| UUAUAGCAAUAUUACGUCGG | -1.58 ± 0.27 | -0.309 ± 0.24 |
| UUAUAGCAAUAUUACGUGGA | -2.5 ± 0.41 | -1.23 ± 0.22 |
| UUAUAGCAAUAUUACGUGUU | -4.16 ± 0.33 | -3.11 ± 0.33 |
| UUAUAGCAAUAUUACGUUCC |  | -2.09 ± 0.48 |
| UUCAAGCAAUAUUACGACCG | -1.29 ± 0.14 | 0.147 ± 0.18 |
| UUCAAGCAAUAUUACGACUG | -2.38 ± 0.15 | -1.33 ± 0.12 |
| UUCAAGCAAUAUUACGAGCA | -1.01 ± 0.1 | -0.0614 ± 0.12 |
| UUCAAGCAAUAUUACGAGCC | -2.64 ± 0.32 |  |
| UUCAAGCAAUAUUACGAUAG | -1.81 ± 0.14 | -0.986 ± 0.17 |
| UUCAAGCAAUAUUACGAUUA | -0.129 ± 0.08 | 0.183 ± 0.081 |
| UUCAAGCAAUAUUACGCACG | -1.11 ± 0.11 | -0.411 ± 0.14 |
| UUCAAGCAAUAUUACGCCCG | -1.16 ± 0.1 | -0.594 ± 0.15 |
| UUCAAGCAAUAUUACGCCCU | -1.34 ± 0.14 | -0.18 ± 0.16 |
| UUCAAGCAAUAUUACGCCUA | 0.0224 ± 0.061 | 0.182 ± 0.077 |
| UUCAAGCAAUAUUACGCGGU | -2.91 ± 0.17 | -1.96 ± 0.17 |
| UUCAAGCAAUAUUACGCUCC | -1.54 ± 0.16 | -1.86 ± 0.24 |
| UUCAAGCAAUAUUACGGCAG | -1.05 ± 0.077 | -0.45 ± 0.11 |
| UUCAAGCAAUAUUACGGCCG | -0.747 ± 0.14 | 0.0541 ± 0.16 |
